# Laboratory results published in article PMC3169412, “Structure of 3-ketoacyl-(acyl-carrier-protein) reductase from Rickettsia prowazekii at 2.25 Å resolution” (Acta Crystallographica Section F: Structural Biology and …, 2011).
# Biological target: the molecule itself
# Assay: crystal structure
protein,measurement,value
"3-ketoacyl-(acyl-carrier-protein) reductase (FabG) from Rickettsia prowazekii strain Madrid E (enzyme, also called 3-ketoacyl-(ACP) reductase; 3-oxoacyl-(acyl-carrier-protein) reductase; not shown: His6, N-terminal, kept) MIDLTGKTSLITGASSGIGSAIARLLHKLGSKVIISGSNEEKLKSLGNALKDNYTIEVCNLANKEECSNLISKTSNLDILVCNAGITSDTLAIRMKDQDFDKVIDINLKANFILNREAIKKMIQKRYGRIINISSIVGIAGNPGQANYCASKAGLIGMTKSLSYEVATRGITVNAVAPGFIKSDMTDKLNEKQREAIVQKIPLGTYGIPEDVAYAVAFLASNNASYITGQTLHVNGGMLMV",stoichiometry N,4
